Earlier results, collected in article PMC4125106.

Biological target: insulin receptor (Drosophila melanogaster) (UniProt P09208)
Test: competitive binding

Sequence of UniProt P09208 (P09208 44-1310): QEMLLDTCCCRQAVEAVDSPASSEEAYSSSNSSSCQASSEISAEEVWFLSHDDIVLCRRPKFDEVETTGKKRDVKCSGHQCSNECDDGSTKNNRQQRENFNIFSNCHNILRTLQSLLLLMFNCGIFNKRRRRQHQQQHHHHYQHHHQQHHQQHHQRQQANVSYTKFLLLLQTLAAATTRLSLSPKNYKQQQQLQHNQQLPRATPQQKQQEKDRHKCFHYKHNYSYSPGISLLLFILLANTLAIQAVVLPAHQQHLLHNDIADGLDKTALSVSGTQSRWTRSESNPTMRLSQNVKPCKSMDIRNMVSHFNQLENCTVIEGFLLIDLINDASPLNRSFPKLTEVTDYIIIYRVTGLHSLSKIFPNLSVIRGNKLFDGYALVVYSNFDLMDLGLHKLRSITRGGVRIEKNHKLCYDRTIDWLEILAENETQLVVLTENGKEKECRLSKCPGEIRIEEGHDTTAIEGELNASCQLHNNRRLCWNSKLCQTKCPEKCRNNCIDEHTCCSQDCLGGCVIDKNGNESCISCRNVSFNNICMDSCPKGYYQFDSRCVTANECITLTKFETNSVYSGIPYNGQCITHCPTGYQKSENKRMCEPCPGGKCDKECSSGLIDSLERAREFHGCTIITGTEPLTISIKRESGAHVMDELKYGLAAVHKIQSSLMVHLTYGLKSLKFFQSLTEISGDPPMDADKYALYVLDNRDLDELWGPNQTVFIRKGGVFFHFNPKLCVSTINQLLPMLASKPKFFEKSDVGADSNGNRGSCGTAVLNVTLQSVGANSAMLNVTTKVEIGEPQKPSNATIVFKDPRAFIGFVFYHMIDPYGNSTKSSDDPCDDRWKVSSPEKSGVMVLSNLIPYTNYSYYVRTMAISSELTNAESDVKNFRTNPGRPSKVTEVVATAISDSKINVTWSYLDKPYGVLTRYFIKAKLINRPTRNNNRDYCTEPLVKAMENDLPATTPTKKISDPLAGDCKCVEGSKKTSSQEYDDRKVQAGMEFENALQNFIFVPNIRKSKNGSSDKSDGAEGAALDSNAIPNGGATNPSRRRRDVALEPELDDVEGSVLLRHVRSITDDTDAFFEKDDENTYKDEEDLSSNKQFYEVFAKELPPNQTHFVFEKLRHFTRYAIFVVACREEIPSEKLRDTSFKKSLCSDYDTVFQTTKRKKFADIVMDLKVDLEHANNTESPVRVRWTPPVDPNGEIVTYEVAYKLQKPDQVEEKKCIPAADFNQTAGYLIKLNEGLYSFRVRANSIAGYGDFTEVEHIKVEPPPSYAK

Kd: 555 pM
Substance: Ilp5 (from UniProt Q7KUD5)
